Experiments:
[1] = target: T1, Human CD26 on transfected CHO cells (human, UniProt P27487 1-766); experiment: flow cytometry on human CD26-transfected CHO cells, antibody 50 nM, goat anti-human IgG-PE
T1 construct: whole, on cells; also called CHO26; CD26 positive CHO cells

[2] = target: T2, Human CD26-Fc fusion protein (human); experiment: ELISA, CD26-Fc coated, purified IgG1 kappa antibody in 3-fold steps, goat anti-human kappa-HRP/ABTS
T2 construct: also called CD26/beads

goat anti-human IgG = experiment: ELISA, goat anti-human IgG coated (control plate), goat anti-human kappa-HRP/ABTS
[3] = target: T2, Human CD26-Fc fusion protein; experiment: ELISA, CD26-Fc coated, purified IgG1 kappa antibody, goat anti-human kappa-HRP/ABTS
[4] = target: T2, Human CD26-Fc fusion protein; experiment: competition ELISA on coated CD26-Fc (5 µg/mL): ADA is varied and the blocked molecule is biotinylated CD26Ab-01D at 5 nM, read with SAHRP/ABTS

T1 sequence (P27487 whole entry): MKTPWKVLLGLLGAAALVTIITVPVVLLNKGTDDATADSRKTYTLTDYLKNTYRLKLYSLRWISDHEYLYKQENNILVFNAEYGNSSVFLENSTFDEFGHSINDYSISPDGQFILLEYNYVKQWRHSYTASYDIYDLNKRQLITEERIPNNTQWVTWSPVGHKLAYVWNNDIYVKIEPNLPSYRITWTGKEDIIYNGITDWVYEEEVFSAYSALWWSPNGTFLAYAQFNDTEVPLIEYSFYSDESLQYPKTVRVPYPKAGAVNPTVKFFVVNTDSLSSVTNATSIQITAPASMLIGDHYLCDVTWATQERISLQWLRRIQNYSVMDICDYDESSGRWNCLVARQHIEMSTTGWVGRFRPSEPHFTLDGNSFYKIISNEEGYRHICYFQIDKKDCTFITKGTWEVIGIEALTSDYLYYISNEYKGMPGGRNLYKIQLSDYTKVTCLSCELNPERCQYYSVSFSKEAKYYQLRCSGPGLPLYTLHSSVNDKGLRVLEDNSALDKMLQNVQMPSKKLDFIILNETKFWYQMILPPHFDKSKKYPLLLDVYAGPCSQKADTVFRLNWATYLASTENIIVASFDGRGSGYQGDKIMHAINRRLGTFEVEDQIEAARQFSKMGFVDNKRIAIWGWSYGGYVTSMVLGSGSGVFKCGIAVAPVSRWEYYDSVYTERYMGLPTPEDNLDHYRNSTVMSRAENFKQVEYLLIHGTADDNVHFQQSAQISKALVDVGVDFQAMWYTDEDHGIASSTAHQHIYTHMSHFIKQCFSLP
T2 sequence (chain, as listed by the source): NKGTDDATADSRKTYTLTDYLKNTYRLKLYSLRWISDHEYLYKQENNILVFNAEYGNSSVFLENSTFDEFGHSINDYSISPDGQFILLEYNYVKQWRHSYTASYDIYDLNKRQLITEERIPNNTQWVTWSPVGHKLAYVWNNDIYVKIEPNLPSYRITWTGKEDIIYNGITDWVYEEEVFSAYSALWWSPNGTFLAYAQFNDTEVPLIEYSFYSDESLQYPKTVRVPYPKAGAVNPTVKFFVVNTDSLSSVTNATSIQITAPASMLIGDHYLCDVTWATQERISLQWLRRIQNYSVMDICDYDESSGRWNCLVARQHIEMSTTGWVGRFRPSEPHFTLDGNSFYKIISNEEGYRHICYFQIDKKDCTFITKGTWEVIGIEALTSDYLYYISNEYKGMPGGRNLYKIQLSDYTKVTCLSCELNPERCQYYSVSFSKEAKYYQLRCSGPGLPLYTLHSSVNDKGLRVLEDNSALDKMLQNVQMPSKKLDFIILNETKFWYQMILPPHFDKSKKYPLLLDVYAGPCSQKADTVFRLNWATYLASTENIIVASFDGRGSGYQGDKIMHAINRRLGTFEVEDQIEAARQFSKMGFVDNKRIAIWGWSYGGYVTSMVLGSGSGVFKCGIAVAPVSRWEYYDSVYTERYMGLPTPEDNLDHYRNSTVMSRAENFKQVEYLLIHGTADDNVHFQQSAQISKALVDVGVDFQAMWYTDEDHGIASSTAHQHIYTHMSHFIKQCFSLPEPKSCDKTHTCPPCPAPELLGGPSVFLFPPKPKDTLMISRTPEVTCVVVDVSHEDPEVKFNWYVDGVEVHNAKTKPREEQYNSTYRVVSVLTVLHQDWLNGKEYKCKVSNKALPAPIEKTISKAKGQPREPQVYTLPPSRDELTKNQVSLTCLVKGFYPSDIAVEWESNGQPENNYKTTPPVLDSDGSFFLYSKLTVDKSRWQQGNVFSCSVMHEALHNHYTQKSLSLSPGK

B1: CD26Ab-01D anti-CD26 IgG1 kappa monoclonal antibody (antibody, V domains shown)
VH: EVQLVESGGGLVQPGGSLRLSCAASGFTINDSYIHWVRQAPGKGLEWVAWIWPYGGFTYYADSVKGRFTISADTSKNTAYLQMNSLRAEDTAVYYCARFLGSSSIMDYWGQGTLVTVSS
VL: DIQMTQSPSSLSASVGDRVTITCRASQDVNSNVAWYQQKPGKAPKLLIFGSGGLYSGVPSRFSGSGSGTDFTLTISSLQPEDFATYYCQQYSSYPLTFGQGTKVETKR
MFI [1]: 1700
binding result [2]: binds

B2: CD26Ab-04A anti-CD26 IgG1 kappa monoclonal antibody (antibody, V domains shown)
VH: EVQLVESGGGLVQPGGSLRLSCAASGFAINNYSIHWVRQAPGKGLEWVASIWPYGGFTSYADSVKGRFTISADTSKNTAYLQMNSLRAEDTAVYYCARFFSSYGDMDYWGQGTLVTVSS
VL: DIQMTQSPSSLSASVGDRVTITCRASQDVSGGVAWYQQKPGKAPKLLIYGTSGLYSGVPSRFSGSGSGTDFTLTISSLQPEDFATYYCQQGGDWPITFGQGTKVEIKR
notes: Used biotinylated in some assays; also called CD26-04A
EC50 (read off the curve) (goat anti-human IgG): ~0.4 nM
MFI [1]: 4360
EC50 (read off the curve) [2]: ~1 nM

B3: CD26Ab-10B anti-CD26 IgG1 kappa monoclonal antibody (antibody, V domains shown)
VH: EVQLVESGGGLVQPGGSLRLSCAASGFTISDYSIHWVRQAPGKGLEWVASIWPYGGFTSYADSVKGRFTISADTSKNTAYLQMNSLRAEDTAVYYCARFHSSSGDMDYWGQGTLVTVSS
VL: DIQMTQSPSSLSASVGDRVTITCRASQDVWGYVAWYQQKPGKAPKLLIFASGALYSGVPSRFSGSGSGTDFTLTISSLQPEDFATYYCQQYFNWPITFGQGTKVEIKR
notes: Very low production; not biotinylated
binding result [3]: no binding (tested: 500000 pM)
MFI [1]: 105

B4: Human adenosine deaminase (ADA) (enzyme, UniProt P00813 1-363, looked up)
chain: MAQTPAFDKPKVELHVHLDGSIKPETILYYGRRRGIALPANTAEGLLNVIGMDKPLTLPDFLAKFDYYMPAIAGCREAIKRIAYEFVEMKAKEGVVYVEVRYSPHLLANSKVEPIPWNQAEGDLTPDEVVALVGQGLQEGERDFGVKARSILCCMRHQPNWSPKVVELCKKYQQQTVVAIDLAGDETIPGSSLLPGHVQAYQEAVKSGIHRTVHAGEVGSAEVVKEAVDILKTERLGHGYHTLEDQALYNRLRQENMHFEICPWSSYLTGAWKPDTEHAVIRLKNDQANYSLNTDDPLIFKSTLDTDYQMTKRDMGFTEEEFKRLNINAAKSSFLPEDEKRELLDLLYKAYGMPPSASAGQNL
notes: Bought reagent; also called Human ADA (R&D systems)
IC50 (read off the curve) [4]: ~0.01 nM
